From US20130197191A1 (Amgen, published 2013) come the findings set out here.

B1: FGFR1c-binding monomer M12 (designed binder)
chain: CGAGQFTCRSTNICLPLQWVCDGVDDCEDNSDEAGCGDSHILPFSTPGPST
B2: FGFR1c-binding monomer M26 (designed binder)
chain: CGSSQFTCHNTNICLPRARVCDGVDDCEDNSDEAGCGDSHILPFSTPGPST

The target in the first test is T1, recombinant human β-Klotho (human, UniProt Q86Z14 53-996, limits assumed, biotinylated in the AlphaScreen assays (site not stated)).
T1 construct: also called rhβ-klotho; huβKlotho-His
T1 sequence: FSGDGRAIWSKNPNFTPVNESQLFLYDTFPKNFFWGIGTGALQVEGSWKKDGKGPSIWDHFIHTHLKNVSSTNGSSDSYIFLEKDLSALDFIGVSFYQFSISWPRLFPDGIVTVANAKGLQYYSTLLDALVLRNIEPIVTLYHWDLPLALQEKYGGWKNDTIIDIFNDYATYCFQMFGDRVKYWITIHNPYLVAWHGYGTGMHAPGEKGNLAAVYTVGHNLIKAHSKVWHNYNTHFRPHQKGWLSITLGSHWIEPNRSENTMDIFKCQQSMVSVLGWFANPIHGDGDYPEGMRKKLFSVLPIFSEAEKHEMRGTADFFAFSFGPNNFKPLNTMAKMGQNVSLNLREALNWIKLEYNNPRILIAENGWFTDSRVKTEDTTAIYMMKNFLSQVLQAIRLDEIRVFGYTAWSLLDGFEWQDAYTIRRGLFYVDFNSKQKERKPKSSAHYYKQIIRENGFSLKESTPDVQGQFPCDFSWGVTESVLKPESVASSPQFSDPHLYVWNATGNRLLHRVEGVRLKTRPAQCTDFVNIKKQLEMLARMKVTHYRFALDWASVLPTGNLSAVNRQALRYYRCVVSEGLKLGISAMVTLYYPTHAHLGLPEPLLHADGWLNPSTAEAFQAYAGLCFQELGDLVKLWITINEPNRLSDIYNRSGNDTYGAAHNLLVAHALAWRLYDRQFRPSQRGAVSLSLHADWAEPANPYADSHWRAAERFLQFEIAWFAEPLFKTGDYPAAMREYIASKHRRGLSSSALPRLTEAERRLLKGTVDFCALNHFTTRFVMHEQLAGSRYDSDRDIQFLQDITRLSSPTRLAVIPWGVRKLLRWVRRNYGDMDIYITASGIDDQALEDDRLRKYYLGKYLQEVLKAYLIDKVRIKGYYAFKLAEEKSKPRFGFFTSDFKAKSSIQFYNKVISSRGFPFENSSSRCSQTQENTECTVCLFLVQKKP
Description: phage panning.
For the molecule CNPIIQHYCETYDGDGLCESACNFYGCAWDGFDCQVISDKDST (designed binder) [β-Klotho-binding monomer LNR_M03], the binding result was “binds”.

On to CIAAKLCERLDGDGSCQSECGNATCGWDGMDCDEKENDELT (designed binder) [β-Klotho-binding monomer LNR_M08], for which the binding result is “binds”.

On to CMEAKSCQARDGDGDCGQGCNLAECIWDGMDCRPEWIRELT (designed binder) [β-Klotho-binding monomer LNR_M06], for which the binding result is on record as “binds”.

In the case of CREYSMCTRFDGDGICHEQCGYPRCLWDGLDCANNFDHEVT (designed binder) [β-Klotho-binding monomer LNR_M12], the binding result is reported as “binds”.

With CHPLIREYCTHYDGDGECDKGCDSAKCKWDGDDCDMDVLAEVT (designed binder) [β-Klotho-binding monomer LNR_M21], the binding result is reported as “binds”.

Regarding CMAYNLCTALVGDGECDQECDTPTCNWDGGDCAVKSAPDST (designed binder) [β-Klotho-binding monomer LNR_M05], the binding result is “binds”.

On to CIAAKLCEALDGDGVCHKECDLEECDWDGGDCQRIFLTDPT (designed binder) [β-Klotho-binding monomer LNR_M01], for which the binding result is listed as “binds”.

Take CMAYNLCQALVGDGSCNSECDTETCGWDGMDCATVEGAEAT (designed binder) [β-Klotho-binding monomer LNR_M11]: the binding result is on record as “binds”.

On to CHPLIREYCEKFFGDGGCDSGCNNSRCDWDGDDCGLIQHGDVT (designed binder) [β-Klotho-binding monomer LNR_M14], for which the binding result is on record as “binds”.

CPAHYGTHCEERDGDGKCHQGCDFATCDWDGMDCGMDLVRELT (designed binder) [β-Klotho-binding monomer LNR_M17]: the binding result is “binds”.

For the molecule CNPLYDDHCAAFFGDGGCGPECSLAECLWDGGDCEEERDADVT (designed binder) [β-Klotho-binding monomer LNR_M15], the binding result is on record as “binds”.

As for CMAYLLCKKYYGDGICRSECDTATCSWDGFDCPVNEIEDLT (designed binder) [β-Klotho-binding monomer LNR_M09], the binding result is given as “binds”.

For the molecule CREYISCPNFYGDGRCQQDCNLAKCVWDGLDCADVWSEDLT (designed binder) [β-Klotho-binding monomer LNR_M04], the binding result was “binds”.

Turning to CNPVYDPYCAAFFGDGGCGPHCGLAECVWDGMDCDHKEVRELT (designed binder) [β-Klotho-binding monomer LNR_M19], the binding result is recorded as “binds”.

Consider CNPLYDPHCRSYFGDGDCGPGCDLAACLWDGGDCPGVAAAELT (designed binder) [β-Klotho-binding monomer LNR_M13], for which the binding result is given as “binds”.

Consider CLYQDCKEYYGDGNCSKGCNLAECLWDGGDCGTIFLADVT (designed binder) [β-Klotho-binding monomer LNR_M07], for which the binding result is on record as “binds”.

With CNPPIGQYCTQLFGDGDCGPDCDLAECVWDGDDCDPVAVPDVT (designed binder) [β-Klotho-binding monomer LNR_M18], the binding result is “binds”.

Consider CNPPIGQYCTQLFGDGDCGPECNLAECVWDGDDCDPVAVPELT (designed binder) [β-Klotho-binding monomer LNR_M20], for which the binding result was “binds”.

Take CNPKYDAHCASYFGDGECDPACSLAECVWDGDDCDPNFLTDVT (designed binder) [β-Klotho-binding monomer LNR_M16]: the binding result is recorded as “binds”.

As for CPPHIEDHCERRDGDGVCQKPCDFYGCLWDGVNCDMDLVQELT (designed binder) [β-Klotho-binding monomer LNR_M02], the binding result is “binds”.

In the case of CPPHIEDHCERRDGDGVCQKPCDFYGCLWDGVDCDMDLVEELT (designed binder) [β-Klotho-binding monomer LNR_M10], the binding result is “binds”.

The next test addresses T1, recombinant human β-Klotho. Description: phage panning. The source holds these as a separate data set.
CSAFEFHCLSGECIHSSWRCDMDWDCKDQPDQLWCALET (designed binder) [β-Klotho-binding monomer M37]: the binding result is “binds”.

For the molecule CSRAHFHCLSGECIHHHWRCDGGPDCKDKSDEENCPTKRPEEV (designed binder) [β-Klotho-binding monomer M41], the binding result is reported as “binds”.

As to CRSSEFPCHGYSTCISLSLLCDGVDDCADNSDEESCRAAGHT (designed binder) [β-Klotho-binding monomer M34], the binding result is “binds”.

The target of the next test is T2, human FGFR1c-Fc (human, UniProt P11362 22-376).
T2 construct: also called huFGFR1c-Fc; huFGFR1c/Fc
T2 sequence: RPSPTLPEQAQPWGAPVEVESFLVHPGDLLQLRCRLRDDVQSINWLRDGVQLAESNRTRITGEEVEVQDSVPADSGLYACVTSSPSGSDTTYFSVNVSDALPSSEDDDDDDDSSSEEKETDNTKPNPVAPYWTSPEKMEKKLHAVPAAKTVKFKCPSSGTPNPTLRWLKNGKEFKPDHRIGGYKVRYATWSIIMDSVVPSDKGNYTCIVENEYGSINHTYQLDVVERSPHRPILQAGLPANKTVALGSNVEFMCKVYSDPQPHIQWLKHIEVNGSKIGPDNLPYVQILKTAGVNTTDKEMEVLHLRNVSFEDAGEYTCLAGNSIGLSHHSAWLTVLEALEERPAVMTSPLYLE
Description: phage panning.
As to CGANLFTCQSTNICISDAWVCDGVDDCEDNSDETTCSQDPEFHKV (designed binder, also called M23mutM10) [FGFR1c-binding monomer M23mut10], the binding result was “binds”.

In the case of CGTNMFTCQRTNICISDAWVCDGVDDCEDYSDETACSQDPEFHKV (designed binder) [FGFR1c-binding monomer M23mut18], the binding result is “binds”.

With CGSDMFTCRSTNICISKVWVCDGVDDCEDDSDERGCSQDPEFHKV (designed binder, also called M23mutM14) [FGFR1c-binding monomer M23mut14], the binding result is listed as “binds”.

Regarding CGSNLFTCRSTNICISPAWVCDGVDDCDDDSDETGCSQDPEFHKV (designed binder, also called M23mutM16) [FGFR1c-binding monomer M23mut16], the binding result is reported as “binds”.

On to CGSNLFTCRRTNICISKAWVCDGVDDCEDNSDETGCSQDPEFHKV (designed binder, also called M23mutM15) [FGFR1c-binding monomer M23mut15], for which the binding result is listed as “binds”.

Turning to CGANLFTCRSTNICISPAWVCDGVDDCEDYSDEIGCSQDPEFHKV (designed binder, also called M23mutM11) [FGFR1c-binding monomer M23mut11], the binding result was “binds”.

As to CGANLFTCRSTNICISPTWVCDGVDDCDDNSDEIGCSQDLEFHKV (designed binder) [FGFR1c-binding monomer M23mut12], the binding result was “binds”.

On to CGPNLFTCRSTNICISRAWVCDGVDDCDDESDEQGCSQDPEFHKV (designed binder) [FGFR1c-binding monomer M23mut13], for which the binding result is “binds”.

In another test the target is T2, human FGFR1c-Fc. Description: phage panning. This is another data set of the same source.
Turning to CLSDQFTCRSTNICLPLQWVCDGDDDCEDNSDEEDCSAPASEPPGSL (designed binder, also called R1cM31) [FGFR1c-binding monomer M31], the binding result is recorded as “binds”.

As to CRLNEFPCGSGSCISLHWVCDSVPDCRDDSDETDCPERT (designed binder) [FGFR1c-binding monomer M33], the binding result is on record as “binds”.

Take CGSSQFTCHNTNICLPRAWVCDGVDDCEDNSDEKNCSAPASEPPGSL (designed binder) [FGFR1c-binding monomer M29]: the binding result is on record as “binds”.

As for B1, the binding result is recorded as “binds”.

As to B2, the binding result was “binds”.

CGPNQFTCRSTNICLSQTWVCDGVDDCEDGSDETNCGRPGPGATSAPAA (designed binder) [FGFR1c-binding monomer M20]: the binding result is listed as “binds”.

For the molecule CGAGQFTCRDTNICISRAWRCDGVDDCEDNSDEADCSQDPEFHKV (designed binder, also called R1cM08) [FGFR1c-binding monomer M08], the binding result is listed as “binds”.
